Article PMC3166062, “Self-Association of an Activating Natural Killer Cell Receptor, KIR2DS1” (PLoS ONE, 2011)

Biological target: the molecule itself
Assay: dynamic light scattering; KIR2DS1 3 µM in 10 mM Tris-HCl, 150 mM sodium chloride, 0.4 mM sodium azide, 25°C; Zetasizer Nano ZS; mean hydrodynamic diameter 320 nm

B1: extracellular region of KIR2DS1 (domain or fragment)
chain: MAHEGVHRKPSLLAHPGRLVKSEETVILQCWSDVMFEHFLLHREGMFNDTLRLIGEHHDGVSKANFSISRMRQDLAGTYRCYGSVTHSPYQLSAPSDPLDIVIIGLYEKPSLSAQPGPTVLAGENVTLSCSSRSSYDMYHLSREGEAHERRLPAGTKVNGTFQANFPLGPATHGGTYRCFGSFRDSPYEWSKSSDPLLVSVTLVPRGS
notes: No cleavage of the tag is described; also called extracellular portion of KIR2DS1
**Q.** Does B1 bind?
**A.** binds
